Measurements published in patent US20070087413A1 (GENHUNTER, published 2007).
Where “and” joins values, the source holds several entries; their conditions need not be identical. Equal entries are not always repeated.

Target: human TNF-α (R & D Systems) (human, UniProt P01375 77-233)
Test: cell-based or functional assay

Sequence of human TNF-α (R & D Systems) (P01375 77-233 limits assumed): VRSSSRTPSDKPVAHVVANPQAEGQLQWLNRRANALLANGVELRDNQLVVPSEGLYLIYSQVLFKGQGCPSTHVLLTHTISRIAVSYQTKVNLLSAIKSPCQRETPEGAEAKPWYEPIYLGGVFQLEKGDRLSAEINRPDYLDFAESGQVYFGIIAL

apparent Ki-50 (50% inhibition) of TNF-α mediated apoptosis of WEHI-13VAR cells, human TNF-α at 0.5 ng/mL: ~2 ng/mL and ~8e-12 M
B1: trimeric soluble human TNF-RII-T2 fusion protein (human soluble TNF-RII fused to the T2 C-propeptide of human α(I) collagen) (receptor)
chain: LPAQVAFTPYAPEPGSTCRLREYYDQTAQMCCSKCSPGQHAKVFCTKTSDTVCDSCEDSTYTQLWNWVPECLSCGSRCSSDQVETQACTREQNRICTCRPGWYCALSKQEGCRLCAPLRKCRPGFGVARPGTETSDVVCKPCAPGTFSNTTSSTDICRPHQICNVVAIPGNASMDAVCTSTSPTRSMAPGAVHLPQPVSTRSQHTQPTPEPSTAPSTSFLLPMGPSPPAEGSTGSDANVVRDRDLEVDTTLKSLSQQIENIRSPEGSRKNPARTCRDLKMCHSDWKSGEYWIDPNQGCNLDAIKVFCNMETGETCVYPTQPSVAQKNWYISKNPKDKRHVWFGESMTDGFQFEYGGQGSDPADVAIQLTFLRLMSTEASQNITYHCKNSVAYMDQQTGNLKKALLLKGSNEIEIRAEGNSRFTYSVTVDGCTSHTGAWGKTVIEYKTTKSSRLPIIDVAPLDVGAPDQEFGFDVGPVCFL
